The assay deals with human CD94 on cells (human) (UniProt Q13241). Kind of assay: cell-based or functional assay.
Chain of UniProt Q13241 (Q13241 whole entry): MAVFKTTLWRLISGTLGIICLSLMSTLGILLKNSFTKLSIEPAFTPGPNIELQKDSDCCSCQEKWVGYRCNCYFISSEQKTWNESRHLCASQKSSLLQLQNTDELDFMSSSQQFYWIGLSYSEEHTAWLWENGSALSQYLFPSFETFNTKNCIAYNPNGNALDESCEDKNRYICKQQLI

Consider “commercial murine anti-CD94 antibody (clone DX22 from Biolegend Catalog #305502)”, for which the CD107a expression on IL-2-activated NK cells co-cultured with HLA-E-expressing SP-53 cells (% of cells) turned out to be 16%.

Source of the values: patent US20250101113A1.
